Data: patent publication US20190100588A1
Numbering of substitutions follows the chain as printed.

B1: antibody 617 (antibody, V domains shown)
VH: QVQLQLPGAELVKPGASVKVSCKASAYTFTSYWMHWVKQRPGQGLEWIGRIHPSDSDTNYNQNFKGKATLTVDKSSNTAYMQLSSLTSEDSAVYYCATGFSFWGQGTLVTVSA
VL: DIVMTQSHKFMSTSVGDRVSITCKASQDVSTTVAWYQQKPGQSPKLLIYSASYRYTGVPDRFTGSGSGTDFTFTISSVQAEDLAVYYCQQHYSTRPTFGGGTKLEIK
B2: antibody 616 (antibody, V domains shown)
VH: QIHLVQSGPELKKPGETVRISCKASGYTFTTYGMSWVKQAPGKALKWMGWINTYSGVPTYADDFKGRFAFSLETSASTAYLQINNLKNEDTATYFCTREGSTMVTRYYFDYWGQGTTLTVSS
VL: DIVMTQAAPSVPVTPGESVSISCRSSKSLLHSNGNTYLYWFLQRPGQSPQLLIYRMSNLASGVPDRFSGSGSGTAFTLRISRVEAEDVGVYHCMQHLESPYTFGGGTTLEIK
B3: antibody 619 (antibody, V domains shown)
VH: B2 VH with H3Q, R19K, A44G, T97A
VL: B2 VL with L51V, H92Y, T108K
B4: antibody 623 (antibody, V domains shown)
VH: B2 VH with H3Q, R19K, A44G, Y94F, T97A
VL: B2 VL with H92Y, S99Y, Y101S, T108K

Target: Pep1/Pep2
Experiment: ELISA, coated peptide

| ELISA O.D. [O.D.] | Binder |
| --- | --- |
| 0.102 | B1 |
| 0.069 | B2 |
| 0.064 | B3 |
| 0.098 | B4 |
